Measured values: PMC4377584, “Sestrin2 inhibits mTORC1 through modulation of GATOR complexes” (Scientific Reports, 2015)

Molecular target: T1, HA-GATOR2 (UniProt Q9NXC5 1-875; Q96S15 1-790; Q6PJI9 1-974; Q96EE3 1-360; P55735 1-322)
T1 construct: MIOS; WDR24; WDR59; SEH1L; SEC13; that every subunit carried the HA tag is read from the name HA-GATOR2; also called immunopurified GATOR2 protein components; purified GATOR2; source: HEK293, transfected, immunopurified (anti-HA agarose beads, HA peptide); copies: + + + +
Assay: pull-down; in vitro: purified proteins mixed in 20 ul buffer A (30 mM Tris-HCl pH8.0, 100 mM NaCl, 1 mM TCEP), incubated overnight with antibodies against the target protein, protein G/A bead, immunoblot; 1 ug Sestrin2; in Fig. 2D GATOR1 pulled down with NPRL2 antibody and detection with HA antibody
Settings: both partners purified

- binding result: binds
B1: Recombinant Sestrin2 (natural protein, UniProt P58004 1-480, looked up)
chain: MIVADSECRAELKDYLRFAPGGVGDSGPGEEQRESRARRGPRGPSAFIPVEEVLREGAESLEQHLGLEALMSSGRVDNLAVVMGLHPDYFTSFWRLHYLLLHTDGPLASSWRHYIAIMAAARHQCSYLVGSHMAEFLQTGGDPEWLLGLHRAPEKLRKLSEINKLLAHRPWLITKEHIQALLKTGEHTWSLAELIQALVLLTHCHSLSSFVFGCGILPEGDADGSPAPQAPTPPSEQSSPPSRDPLNNSGGFESARDVEALMERMQQLQESLLRDEGTSQEEMESRFELEKSESLLVTPSADILEPSPHPDMLCFVEDPTFGYEDFTRRGAQAPPTFRAQDYTWEDHGYSLIQRLYPEGGQLLDEKFQAAYSLTYNTIAMHSGVDTSVLRRAIWNYIHCVFGIRYDDYDYGEVNQLLERNLKVYIKTVACYPEKTTRRMYNLFWRHFRHSEKVHVNLLLLEARMQAALLYALRAITRYMT
notes: Full-length Sestrin2 cDNA; also called Sestrin2 protein; purified Sestrin2; source: Rosetta (DE3) pLysS E. coli, purified (Ni-NTA, amylase resin, TEV, HiTrap Q, Superdex 200); not shown: His6, N-terminal, cleaved; MBP, N-terminal, cleaved
